Source: patent US7910100B2, “Antibodies directed to the mammalian EAG1 ion channel protein” (Max-Planck-Gesellschaft zur Forderung der Wissen, priority 2004, dated 2011)

B1: ImAb1: mouse monoclonal anti-Eag1 antibody; VL SEQ ID NO: 43, VH SEQ ID NO: 44; binds C-terminus of Eag1 (antibody, listed as Mus musculus)
heavy: MNFGFSLIFLVLVLKGVQCEVKLVESGGGLVKPGGSLKLSCAASGFTFSNYAMSWVRQTPEKRLEWVASISSDGDTYFPDNVKGRFTISRENAGNILFLQMSSLRSEDTAMYYCARGFMITFWGQGTLVTVSAAKTTPPSVYPLAPGCGDTTGSSVTLGCLVKGYFPESVTVTWNSGSLSSSVHTFPALLQSGLYTMSSSVTVPSSTWPSQTVTCSVAHPASSTTVD
light: MDMRAPAQFFGILLLWFPGIRCDIKMTQSPSSMYASLGERVTITCKASQDIKSYLSWYQQKPWKSPKILIYYATSLADGVPSRISGSGSGQDYSLTISSLESDDTATYYCLQHGESPYTFGGGTKLEIKRADAAPTVSIFPPSSEQLTSGGASVVCFLNNFYPKDINVKWKIDGSERQNGVLNSWTDQDSKDSTYSMSSTLTLTKDEYERHNSYTCEATHKTSTSPIVKSFNRNEC
B2: ImAb4: mouse monoclonal anti-Eag1 antibody, IgG2b kappa; light chain SEQ ID NO: 2, heavy chain SEQ ID NO: 4 (antibody, listed as Mus musculus)
heavy: MRVLILLWLFTAFPGILSDVQLQESGPGLVKPSQSLSLTCTVTGYSITSDYAWNWIRQFPGNKLEWMGYISYSGSTIYNPSLKSRISITRDTSKNQFFLQLNSVTTEDTATYYCARFGNYGNTLNYWGQGTSVTVSSAKTTPPSVYPLAPGCGDTTGSSVTLGCLVKGYFPESVTVTWNSGSLSSSVHTFPALLQSGLYTMSSSVTVPSSTWPSQTVTCSVAHPASSTTVDKKLEPSGPISTINPCPPCKECHKCPAPNLEGGPSVFIFPPNIKDVLMISLTPKVTCVVVDVSEDDPDVQISWFVNNVEVHTAQTQTHREDYNSTIRVVSTLPIQHQDWMSGKEFKCKVNNKDLPSPIERTISKIKGLVRAPQVYILPPPAEQLSRKDVSLTCLVVGFNPGDISVEWTSNGHTEENYKDTAPVLDSDGSYFIYSKLNMKTSKWEKTDSFSCNVRHEGLKNYYLKKTISRSPGK
light: MKLPVRLLVLMFWIPASSSDVVMTQTPLSLPVSLGDQASISCRSSQSLVHSNGNTYLHWYLQKPGQSPKLLIYKVSNRFSGVPDRFSGSGSGTDFTLKISRVEAEDLGVYFCSQSTHVPPTFGGGTKLEIKRADAAPTVSIFPPSSEQLTSGGASVVCFLNNFYPKDINVKWKIDGSERQNGVLNSWTDQDSKDSTYSMSSTLTLTKDEYERHNSYTCEATHKTSTSPIVKSFNRNEC

Experiments:
[1] = system: Eag1 overexpressing CHO K1 cells; assay: Internalization of Cy3-labelled antibodies, immunofluorescence on living cells; format: cell-based; details: Cy3-labelled antibody; for binding to Eag1 antigen on living cells: overnight; for internalization into cells: within 24 h
Protocol: In order to analyse the internalization properties of the anti-Eag1 antibodies of invention, CHO cells were grown on coverslips and incubated in normal medium (Ham's F12, 10% FCS) overnight (37 C, 5% CO2) with anti-Eag1 antibodies ImAb1 and ImAb4 directly labeled with Cy3 (100 μg). Cultures were thereafter incubated with app. 2 μg/ml Hoechst 33342 for 10 min.

[2] = system: Eag1 peptides (pore domain / CAD domain of immunogen); assay: Epitope mapping on SPOT cellulose membrane with 76 overlapping peptides; format: binding; details: 76 overlapping 13 mer peptides, shift 2 aa; antibody diluted 1:2000
[3] = target: T1, Eag1 in rat brain sections (Rattus norvegicus, UniProt Q63472); assay: Immunohistochemistry of rat brain sections (cerebellum, hippocampus); format: binding; details: ImAb1 4 μg/ml, ImAb4 2 μg/ml, overnight 4° C.
T1 construct: from tissue; host or cells: brain (cerebellum, hippocampus) of postnatal-day 21 Sprague Dawley rats
T1 sequence (Q63472 1-962): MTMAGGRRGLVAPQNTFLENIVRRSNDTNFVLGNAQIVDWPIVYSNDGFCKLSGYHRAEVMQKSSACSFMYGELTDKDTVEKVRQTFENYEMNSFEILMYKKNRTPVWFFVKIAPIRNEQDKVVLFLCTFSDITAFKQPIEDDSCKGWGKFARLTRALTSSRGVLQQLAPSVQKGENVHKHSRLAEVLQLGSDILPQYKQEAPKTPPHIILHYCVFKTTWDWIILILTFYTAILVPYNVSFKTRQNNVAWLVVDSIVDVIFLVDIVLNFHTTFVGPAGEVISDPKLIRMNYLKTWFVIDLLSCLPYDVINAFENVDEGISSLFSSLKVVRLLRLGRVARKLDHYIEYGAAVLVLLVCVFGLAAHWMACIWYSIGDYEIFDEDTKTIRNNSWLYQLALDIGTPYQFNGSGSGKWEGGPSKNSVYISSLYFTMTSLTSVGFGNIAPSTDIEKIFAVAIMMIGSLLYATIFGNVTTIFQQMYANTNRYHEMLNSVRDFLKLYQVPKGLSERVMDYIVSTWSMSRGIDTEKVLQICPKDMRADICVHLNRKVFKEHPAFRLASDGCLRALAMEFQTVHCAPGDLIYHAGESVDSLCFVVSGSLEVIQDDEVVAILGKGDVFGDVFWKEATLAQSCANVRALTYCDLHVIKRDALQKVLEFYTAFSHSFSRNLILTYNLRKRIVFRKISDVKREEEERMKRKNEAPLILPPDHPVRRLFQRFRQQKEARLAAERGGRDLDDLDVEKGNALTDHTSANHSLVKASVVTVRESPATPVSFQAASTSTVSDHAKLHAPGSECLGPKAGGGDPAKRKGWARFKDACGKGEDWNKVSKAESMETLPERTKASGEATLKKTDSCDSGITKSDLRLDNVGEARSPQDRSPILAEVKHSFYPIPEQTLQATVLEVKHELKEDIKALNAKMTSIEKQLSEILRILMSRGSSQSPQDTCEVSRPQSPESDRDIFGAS
Protocol: Cross-reactivity of anti-Eag1 antibodies of the invention were further analysed by Immunohistochemistry studies of rat brain sections of the cerebellum and the hippocampus. For the IHC, two postnatal-day 21 Sprague Dawley rats were anesthetized with a mixture of ketamine HCl (Ketaset; 100 mg/ml; Fort Dodge Laboratories, Inc., U.S.A.) and xylazine (Rompun; 20 mg/ml; Mile, Inc., U.S.A.) at 0.1 ml/100 g body weight. The animals were transcardially perfused with a fixative consisting of 4% p-formaldehyde in 0.12 M phosphate buffer (pH 7.2). After perfusion, brains were removed, fixed for an additional hour at 4° C., rinsed three times with PBS and stored overnight at 4° C. Coronal and sagital sections (40-50 μm) were cut in cold PBS using a vibratome (Leica, Vienna, Austria). Slices were incubated for 1 h with 10% normal goat serum in PBS, then with anti-Eag1 antibodies ImAb1 (4 μg/ml) and ImAb4 (2 μg/ml) in PBS overnight at 4° C. and processed using the avidin/biotin-peroxidase system (Vectastain kit, Vector Laboratories, Burlingame, Calif.). Antibody binding was visualized using 3′-3-diaminobenzidine tetrahydrochloride (DAB; DAB substrate kit for peroxidase, Vector Laboratories). […] Sections were analysed with a Zeiss Axiophot microscope.

Row | Molecule | binding to Eag1 antigen on living cells [1] | internalization into cells [1] | peptide spots bound (epitope) [2] | cross-reactivity with rat (IHC staining) [3]
1 | B1 | bind to Eag1 antigen on living cells expressing the antigen | are internalized into the cells | bound weakly to peptides 21-24 | cross-reacts with other mammalian species such as rat
2 | B2 | bind to Eag1 antigen on living cells expressing the antigen | are internalized into the cells | bound at spots 3-8 | cross-reacts with other mammalian species such as rat
